Test results reported in patent publication US20100226985A1, “VISCOELASTIC AQUEOUS GELS COMPRISING MICROSPHERES” (priority 2006, published 2010).

Assay: Lysozyme release from viscoelastic gels into release buffer (BCA protein assay)
Format: physicochemical
Conditions: after approximately one month; gel solid content 15 wt.-%, DS 4 and 8, lysozyme 1 wt.-% in buffer; release buffer Hepes pH 7
Description: Viscoelastic gel compositions with a solid content of 15 wt.-% comprising lysozyme as a model active compound were prepared by dispersing equal amounts of dex-HEMA-L-lactate and dex-HEMA-D-lactate microspheres (DS 4 and 8) in lysozyme-containing (1 wt.-%) aqueus buffer solution. The microparticles were allowed to hydrate overnight at 4° C. Viscoelastic gels were formed which were then tested for lysozyme release using the method described by Van Tomme et al. JCR 2005; 110:67-78. In short, samples of 500 mg of the gels were transferred in a release device and 3 mL release buffer (Hepes, pH 7, 100 mM, 150 mM NaCl, 0.02% NaN3). At certain time intervals, samples were taken and analysed for their protein content using a BCA® protein assay. After approximately one month, about 80% of the entrapped lysozyme was released. No significant difference could be detected between the two batches (i.e. with DS 4 and DS 8) were observed.

Substance: lysozyme
- entrapped lysozyme released: about 80%
